Results published in patent publication US20100041597A1 (published 2010).

T1: PKC-ζ (purified isoform) (Homo sapiens (Human), UniProt Q05513 1-592)
T1 construct: also called PKC-zeta; PKCzeta
T1 sequence: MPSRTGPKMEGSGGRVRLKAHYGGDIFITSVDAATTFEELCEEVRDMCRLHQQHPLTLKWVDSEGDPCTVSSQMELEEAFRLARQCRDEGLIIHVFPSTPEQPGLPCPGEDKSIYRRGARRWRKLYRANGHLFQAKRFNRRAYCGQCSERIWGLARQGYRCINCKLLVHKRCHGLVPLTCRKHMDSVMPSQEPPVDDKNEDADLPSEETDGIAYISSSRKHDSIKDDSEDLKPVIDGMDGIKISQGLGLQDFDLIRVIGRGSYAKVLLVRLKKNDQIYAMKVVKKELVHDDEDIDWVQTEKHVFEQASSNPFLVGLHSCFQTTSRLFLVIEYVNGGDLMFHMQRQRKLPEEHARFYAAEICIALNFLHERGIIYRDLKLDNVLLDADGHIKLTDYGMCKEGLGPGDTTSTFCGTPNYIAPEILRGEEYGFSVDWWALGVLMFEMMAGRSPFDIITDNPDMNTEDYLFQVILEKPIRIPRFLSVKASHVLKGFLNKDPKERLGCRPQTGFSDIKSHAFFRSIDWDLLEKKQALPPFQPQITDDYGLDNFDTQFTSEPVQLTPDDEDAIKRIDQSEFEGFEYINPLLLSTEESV

T2: PKC-ε (purified isoform) (Homo sapiens (Human), UniProt Q02156 1-737)
T2 construct: also called PKC-epsilon; PKCepsilon
T2 sequence: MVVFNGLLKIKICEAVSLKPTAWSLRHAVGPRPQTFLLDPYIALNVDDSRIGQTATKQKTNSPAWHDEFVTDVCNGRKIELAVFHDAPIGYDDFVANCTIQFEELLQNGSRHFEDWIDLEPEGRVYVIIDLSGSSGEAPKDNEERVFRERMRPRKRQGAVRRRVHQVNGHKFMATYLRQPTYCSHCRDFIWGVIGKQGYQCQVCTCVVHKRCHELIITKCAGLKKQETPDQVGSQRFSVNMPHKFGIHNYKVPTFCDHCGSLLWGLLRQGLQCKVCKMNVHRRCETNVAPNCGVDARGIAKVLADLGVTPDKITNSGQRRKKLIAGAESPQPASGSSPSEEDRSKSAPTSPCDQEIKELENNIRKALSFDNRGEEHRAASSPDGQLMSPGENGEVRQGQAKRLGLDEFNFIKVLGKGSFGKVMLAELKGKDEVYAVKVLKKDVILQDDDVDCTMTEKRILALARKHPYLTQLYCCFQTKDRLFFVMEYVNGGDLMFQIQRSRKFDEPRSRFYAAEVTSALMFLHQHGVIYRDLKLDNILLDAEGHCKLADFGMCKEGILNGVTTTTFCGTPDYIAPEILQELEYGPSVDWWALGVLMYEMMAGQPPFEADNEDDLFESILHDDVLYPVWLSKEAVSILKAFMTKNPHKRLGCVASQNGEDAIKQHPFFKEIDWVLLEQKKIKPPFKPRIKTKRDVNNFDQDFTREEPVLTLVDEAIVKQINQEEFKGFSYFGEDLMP

B1: PRE 4 (peptide)
peptide: Ac-KDAQNLIGISI-NH2
notes: Synthetic peptide; also called peptide PRE 4
B2: PRE 13 (peptide)
peptide: Ac-RDAQNLI-NH2
notes: Synthetic peptide; also called peptide PRE 13; Ac-RDAQNLI-NH2
B3: PRE 6 (peptide)
peptide: Ac-KDANQLIGISI-NH2
notes: Synthetic peptide; also called peptide PRE 6
B4: PRE 11 (peptide)
peptide: Ac-RDAQNLIGISI-NH2
notes: Synthetic peptide; also called peptide PRE 11
B5: PRE 3 (peptide)
peptide: Ac-AKGIQEVKGGDAQNLIGISI-NH2
notes: Synthetic peptide; also called peptide PRE 3
B6: PRE 7 (peptide)
peptide: Ac-ISIGILQNADK-NH2
notes: Synthetic peptide (retro form of PRE 4); also called peptide PRE 7
B7: PRE 12 (peptide)
peptide: Ac-KDAQNLI-NH2
notes: Synthetic peptide; also called peptide PRE 12; Ac-KDAQNLI-NH2

Biological target: T3, PKC-βII (purified isoform) (Homo sapiens (Human), UniProt P05771 2-621)
T3 construct: also called PKC-beta II
T3 sequence (P05771 other isoform, or with tags, fused parts or gaps limits assumed): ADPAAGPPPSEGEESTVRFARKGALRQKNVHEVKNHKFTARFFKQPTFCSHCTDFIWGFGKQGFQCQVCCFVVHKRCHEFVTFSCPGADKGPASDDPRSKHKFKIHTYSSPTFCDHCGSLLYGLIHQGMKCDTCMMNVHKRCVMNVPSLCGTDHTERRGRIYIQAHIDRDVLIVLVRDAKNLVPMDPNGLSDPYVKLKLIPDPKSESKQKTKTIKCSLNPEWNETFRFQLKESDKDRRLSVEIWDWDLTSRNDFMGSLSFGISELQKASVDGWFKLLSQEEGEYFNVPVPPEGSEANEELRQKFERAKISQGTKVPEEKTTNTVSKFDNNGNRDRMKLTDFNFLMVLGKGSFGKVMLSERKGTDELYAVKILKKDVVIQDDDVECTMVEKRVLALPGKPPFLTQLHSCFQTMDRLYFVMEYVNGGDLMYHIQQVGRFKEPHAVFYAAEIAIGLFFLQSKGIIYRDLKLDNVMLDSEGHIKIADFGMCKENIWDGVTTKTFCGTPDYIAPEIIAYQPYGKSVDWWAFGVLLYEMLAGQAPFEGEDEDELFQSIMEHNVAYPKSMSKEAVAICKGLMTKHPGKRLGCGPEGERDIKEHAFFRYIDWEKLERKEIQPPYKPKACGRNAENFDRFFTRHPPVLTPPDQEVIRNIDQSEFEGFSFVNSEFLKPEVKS
Assay: competitive ELISA on purified PKC-βII vs anti-PKC-βII Ab; PRE 100 µM
Procedure: (§1) Greiner 96 well ELISA plates were coated with the appropriate PKC isoform diluted in PBSN (PBS with Calcium/Magnesium+0.05% Sodium azide w/w). 50 μL/well at 250 ng/mL was used. Control wells contained PBSN only. Plates were incubated overnight at 4° C.
(§2) The plates were washed 3 times with 200 μL of dH₂O per well, then 100 μL of blocking solution was added per well and the plate incubated for 1 h at 37° C. The washing steps with dH₂O were repeated and 50 μL of the appropriate PRE solution (PRE stock solution [20 mM in DMSO] diluted in PBSN) was added and the plate incubated for 1 h at room temperature.
(§3) 50 μL of 1:1000 dilution of Alkaline Phosphatase (AP) conjugated antibody (anti-rabbit for all except zeta, which was anti-goat) was then added and the plate incubated for 1 h at room temperature. Washing with dH₂O was then repeated. Finally, 100 μL of pNPP solution in pNPP buffer (2 mM MgCl₂, 100 mM Sodium bicarbonate in water, pH 9.8) was added to all wells and incubated for 8 minutes for α, βI, βII ε, and ζ, or for 15-20 mins for […] (until sufficient coloration is observed). The reaction was stopped by addition of Stop solution (2N NaOH) and the absorbance at 405 nm was read on a Galaxy Plate reader.

Going from B1 to B2, the “binding capacity (%)” value falls from 13.5% to 1.63%.

With B3 the “binding capacity (%)” value was 0%.

Biological target: T3, PKC-βII (purified isoform)
Assay: competitive ELISA on purified PKC-βII vs anti-PKC-βII Ab; PRE 200 µM
Procedure: as §1, §2, §3

Compared with B1, B2 is lower in “binding capacity (%)” value: 1.18% for the first, 0% for the second.

B3 was tested, and the “binding capacity (%)” value was 0%.

Biological target: T4, PKC-α (purified isoform) (Homo sapiens (Human), UniProt P17252 2-672)
T4 construct: also called PKC-alpha; PKCalpha
Assay: competitive ELISA on purified PKC-α vs anti-PKC-α Ab; PRE 100 µM
Procedure: as §1
After incubation, 5 μL of 1.1:400 anti-PKC (isoform specific antibody) was added per well (to provide a final concentration of 1:4000). For PKC-epsilon, 1.1:800 dilution was used and for PKC-zeta a 1.1:100 dilution was used due to high and low binding affinity, respectively. The plates were then incubated 1 h at room temperature, followed by washing with dH₂O as described above.
as §3

Going from B1 to B4, the “binding capacity (%)” value falls from 21.9% to 5.96%.

First: B5
Second: B6
The “binding capacity (%)” value of the first is higher: 26.5% for the first, 6.72% for the second.

In the case of B7, the “binding capacity (%)” value is reported as 5.16%.

Biological target: T1, PKC-ζ (purified isoform)
Assay: summary grade, purified isoform ELISA

B4: no binding (tested: 200 µM).
B2: no binding (tested: 200 µM).
B3: no binding (tested: 200 µM).

Biological target: T4, PKC-α (purified isoform)
Assay: competitive ELISA on purified PKC-α vs anti-PKC-α Ab; PRE 50 µM
Procedure: as §1, §2, §3

First: B1
Second: B4
The “binding capacity (%)” value of the first is higher: 6.46% for the first, 0% for the second.

Compared with B5, B6 is lower in “binding capacity (%)” value: 17.5% for the first, 0% for the second.

B7 was tested, and the “binding capacity (%)” value was 3.29%.

Biological target: T2, PKC-ε (purified isoform)
Assay: competitive ELISA on purified PKC-ε vs anti-PKC-ε Ab; PRE 100 µM
Procedure: as §1, §2, §3

Going from B4 to B5, the “binding capacity (%)” value rises from 13% to 31.5%.

Compared with B6, B7 is lower in “binding capacity (%)” value: 14% for the first, 0.28% for the second.

B2 was tested, and the “binding capacity (%)” value was 0%.

Biological target: T2, PKC-ε (purified isoform)
Assay: competitive ELISA on purified PKC-ε vs anti-PKC-ε Ab; PRE 200 µM
Procedure: as §1, §2, §3

Going from B4 to B5, the “binding capacity (%)” value rises from 9.84% to 31%.

Going from B6 to B7, the “binding capacity (%)” value falls from 3.78% to 0%.

With B2 the “binding capacity (%)” value was 0.85%.

Biological target: T2, PKC-ε (purified isoform)
Assay: competitive ELISA on purified PKC-ε vs anti-PKC-ε Ab; PRE 50 µM
Procedure: as §1, §2, §3

Going from B4 to B5, the “binding capacity (%)” value rises from 2.25% to 34%.

Going from B6 to B7, the “binding capacity (%)” value rises from 8.04% to 10.4%.

In the case of B2, the “binding capacity (%)” value is reported as 0%.
